In the assay the target is T1, human NRP1 protein (human, UniProt O14786 22-856, limits assumed).
T1 construct: also called hNRP1 protein; neuropilin 1
T1 sequence (looked up): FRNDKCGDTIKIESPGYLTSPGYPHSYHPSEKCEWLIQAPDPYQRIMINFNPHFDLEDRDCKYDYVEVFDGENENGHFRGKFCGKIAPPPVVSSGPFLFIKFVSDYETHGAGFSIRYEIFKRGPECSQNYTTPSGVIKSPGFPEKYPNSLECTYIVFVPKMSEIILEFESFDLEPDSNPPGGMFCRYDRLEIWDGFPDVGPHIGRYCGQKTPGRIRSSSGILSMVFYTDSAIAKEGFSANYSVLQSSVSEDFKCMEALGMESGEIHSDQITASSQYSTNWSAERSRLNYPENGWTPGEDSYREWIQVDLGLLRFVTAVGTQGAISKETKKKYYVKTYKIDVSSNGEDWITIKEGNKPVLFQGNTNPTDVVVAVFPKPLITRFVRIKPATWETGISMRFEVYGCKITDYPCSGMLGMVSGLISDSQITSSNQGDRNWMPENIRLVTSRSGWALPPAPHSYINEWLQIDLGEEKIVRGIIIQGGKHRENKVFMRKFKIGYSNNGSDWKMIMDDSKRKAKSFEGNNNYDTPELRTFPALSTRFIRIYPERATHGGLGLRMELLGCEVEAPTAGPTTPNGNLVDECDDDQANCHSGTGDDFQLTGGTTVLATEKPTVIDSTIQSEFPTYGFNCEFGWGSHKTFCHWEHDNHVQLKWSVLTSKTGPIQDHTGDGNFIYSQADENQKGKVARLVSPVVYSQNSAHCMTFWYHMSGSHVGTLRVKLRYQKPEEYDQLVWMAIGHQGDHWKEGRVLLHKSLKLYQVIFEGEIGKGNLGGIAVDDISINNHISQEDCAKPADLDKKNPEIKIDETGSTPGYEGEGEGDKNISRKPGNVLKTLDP
Kind of assay: SPR, Biacore T100. (In general: In SPR one partner is held on a chip, and binding of the other changes the refractive index at the surface.)

B1: 3H10 scFv (scFv, V domains shown)
VH: EVQLLESGGGLVQFQQSLRLSQAASQFTFSSYYMSWVRQAFGKGLEWVSAISPGSSNKYYADSVKGRFTISRDNSKNTLYLQMNELRAEDTAVYYCARRKYMFDYWGQGTLVTVSS
VL: GSVLTQPPSASGTPGQRVTISCTGESSNIGNNDVYWYQQLPGTAFKLLIYSQSNRPSGMPDRFSGSKSGTSASLAISGLRSEDEADYYCASWDSSLSGYVFGGGTKLTVTL
In the case of B1, binding was characterised by a dissociation constant (Kd) of 295 nM.

B2: 1A03 scFv (scFv, V domains shown)
VH: EVQLLESGGGLVQFGGSLRLSQAASGFTFSSYYMSWVRQAFGKGLEWVSAISFGSSNKYYADSVQGRFTISRDNSKNTLYLQMNELRAEDTAVYYCARRKKSFDYWGQGTLVTVSS
VL: QSVLTQFFSASGTPGQRVTISCSGFSSNIGNNDVSWYQQLFGTAPKLLIYSCNNRPSGVPDRFSGSKSGTSASLAISGLRSSDEADYYCGAWVASLSAYVFGGGTKLTVTL
For the molecule B2, the Kd is 89.4 nM.

Usually Kd stands for the constant that tells how readily two partners part at equilibrium.
